{"source": "patent US8940864", "molecular_target": "C-CA (W184A/M185A) (HIV-1) (UniProt P04591)", "experiment": "NMR, slow exchange kinetics of binding", "data": [{"substance": "NYAD-1 (peptide)", "values": [{"measurement": "Kd", "value": "< 10", "unit": "µM"}]}]}
